# Key:
# [1] = target: AlDnaKST, recombinant C-terminally StrepII-tagged DnaK (HSP70) from Acholeplasma laidlawii (Acholeplasma laidlawii) (UniProt A9NFN8); test: BLI; BLItz; biotinylated AlDnaKST or AlClpBST loaded on a streptavidin biosensor (2.0 nm); analyte in PBS pH 7.4; 300 s association, 300 s dissociation; BSA control subtracted
# [2] = target: full-length AlIbpA_(His6), small heat shock protein IbpA from Acholeplasma laidlawii (Acholeplasma laidlawii) (UniProt A9NFB2); test: BLI; BLItz; biotinylated AlIbpA_(His6) loaded on a streptavidin biosensor (2.0 nm); analyte 10 µM in PBS pH 7.4; 300 s association, 300 s dissociation; BSA control subtracted
# [3] = target: T1, AlDnaKST, recombinant C-terminally StrepII-tagged DnaK (HSP70) from Acholeplasma laidlawii (Acholeplasma laidlawii, UniProt A9NFN8 1-610, biotin (EZ-Link NHS-PEG4-biotin) where it was the protein immobilised on the streptavidin biosensor); test: BLI; BLItz; biotinylated AlDnaKST or AlClpBST loaded on a streptavidin biosensor (2.0 nm); analyte in PBS pH 7.4; 300 s association, 300 s dissociation; BSA control subtracted; details: both partners purified
# T1 construct: DnaK (HSP70) of Acholeplasma laidlawii, from a synthetic gene dnaK cloned in pET-28a(+); Plasmid pET-28a-AlDnaKST; source: E. coli BL21 (DE3), purified (Strep-tactin agarose); not shown: StrepII, C-terminal, kept
# [4] = target: AlClpBST, recombinant C-terminally StrepII-tagged ClpB (HSP100) from Acholeplasma laidlawii (Acholeplasma laidlawii); test: as above
# [5] = target: T1, AlDnaKST, recombinant C-terminally …; test: BLI; BLItz; biotinylated AlIbpA_(His6) loaded on a streptavidin biosensor (2.0 nm); analyte 10 µM in PBS pH 7.4; 300 s association, 300 s dissociation; BSA control subtracted; details: both partners purified
molecule,measurement,setting,value
"AlClpBST, recombinant C-terminally StrepII-tagged ClpB (HSP100) from Acholeplasma laidlawii (natural protein)",Kd,[1],20300 nM
same,Kd,[2],1200 nM
"AlIbpA∆N12_(His6)–insulin complex, chemically cross-linked with glutaraldehyde (from UniProt A9NFB2 13-137)",fold increase in KD against AlIbpA∆N12 (His6) alone,[1],2 fold
human insulin (ligand),Kd,[2],100 nM
"AlIbpAΔN12_(His6), AlIbpA lacking 12 N-terminal amino acid residues (domain or fragment, Acholeplasma laidlawii, UniProt A9NFB2 13-137, looked up, The limit 13 is worked out from 'removal of 12 N-terminal amino acid residuals'; Forms mostly fibrils; also called AlIbpA∆N12_(His6); AlIbpAN12_(His6); source: E. coli BL21 (DE3), purified (Ni-NTA agarose)) DDFFEDFNVLNPVTTSNLMRTDIKETQNGYSLSVELPGFKKEDVKVSLEDGYLTIEAHTSKNSETKDQATKYIRKERYEGTMKRSYYVGNLHLDEINGTFENGMLHIELPKETKKEPEKRYLELK",fold decrease of binding affinity against full-length AlIbpA_(His6),[3],15 fold
"full-length AlIbpA_(His6), small heat shock protein IbpA from Acholeplasma laidlawii (natural protein, UniProt A9NFB2 1-137, looked up, biotin (EZ-Link NHS-PEG4-biotin) where it was the protein immobilised on the streptavidin biosensor, Forms globular and fibrillar oligomers; also called HSP20; sHSP; source: E. coli BL21 (DE3), purified (Ni-NTA agarose)) MLSLLNKNRSFFDDFFEDFNVLNPVTTSNLMRTDIKETQNGYSLSVELPGFKKEDVKVSLEDGYLTIEAHTSKNSETKDQATKYIRKERYEGTMKRSYYVGNLHLDEINGTFENGMLHIELPKETKKEPEKRYLELK",Kd,[4],200 nM
same,Kd,[5],3100 nM
same,Kd,[3],100 nM

# — paper PMC10607609, “The Functionality of IbpA from Acholeplasma laidlawii Is Governed by Dynamic Rearrangement of Its Globular–Fibrillar Quaternary Structure” (International Journal of Molecular Sciences, 2023)
